In assay [1] the target is T1, human CD3ε/δ-Fc fusion heterodimer (hCD3ε/δ-hFc) (human, UniProt P04234 22-105).
T1 construct: also called CD3ed-Fc; human CD3ε/δ complex; not shown: hinge-CH2-CH3 of human IgG with tag
Briefly: SPR single point, hybridoma supernatant. Here is the method:
Rats with positive sera were scarified and B cells were fused with mouse myeloma cells. The resulting hybridomas were screened on HEK293 cells transfected with human or cynomolgus CD3ε and CD3δ expression plasmids, on Jurkat E6.1 (CD3+) and Jurkat T3.5 (CD3-) by flow cytometry. Supernatant of Hybridoma clones was used to assess by surface plasmon resonance single point kinetic against human and Macaca fascicularis CD3ε/δ complex by fixing the analyte at 25 nM (data presented in table 3).

Assay [2] has as its target T2, human CD123 (IL3RA) Strep-II tagged Fc-fusion protein (human).
T2 construct: also called human CD123-Fc
Briefly: SPR Proteon XPR36, rat IgG captured, CD123-Fc analyte. Here is the method: Screening of anti-CD123 rat IgGs for binding affinities to human CD123 and cross-reactivities to cyno CD123 was performed with hybridoma supernatants using a Proteon XPR36 (Biorad) in a one-shot kinetics approach. A capture assay was established using a goat anti-rat IgG (112-005-071, Jackson Immuno Research). The capture antibody was coated on GLC chips (176-5011, Biorad) to approx. 8000 RU in the vertical direction using the amine coupling kit (176-2410, Biorad). […] Binding kinetics with human and cyno CD123-Fc fusion protein was measured at 100 μl/min in the horizontal direction with 120 sec. and 600 sec. for association and dissociation, respectively. The CD123-Fc proteins were used in twofold dilutions from 6 nM to 100 nM. PBSET buffer (176-2730, Biorad) was used as assay buffer. Regeneration was achieved by injection of 10 mM Glycine buffer pH 1.5 for 18 sec at 30 μl/min. Data processing and analysis was performed using ProteonManager software v3.0. Fitting of the sensorgrams was done with a 1:1 Langmuir model.

T1 sequence (chain, as listed by the source mutant, chain 1 of 2): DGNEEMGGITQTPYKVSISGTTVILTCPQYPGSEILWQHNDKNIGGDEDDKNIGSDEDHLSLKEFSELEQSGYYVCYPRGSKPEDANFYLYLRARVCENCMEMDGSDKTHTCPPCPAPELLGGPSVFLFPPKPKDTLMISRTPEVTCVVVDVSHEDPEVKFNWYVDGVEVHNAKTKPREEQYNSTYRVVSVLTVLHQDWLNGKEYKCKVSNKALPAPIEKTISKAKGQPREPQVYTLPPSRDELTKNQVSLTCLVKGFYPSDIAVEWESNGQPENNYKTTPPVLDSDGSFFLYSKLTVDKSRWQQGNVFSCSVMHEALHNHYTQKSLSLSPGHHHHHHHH
T1 sequence (P04234 22-105, stated change not applied, chain 2 of 2): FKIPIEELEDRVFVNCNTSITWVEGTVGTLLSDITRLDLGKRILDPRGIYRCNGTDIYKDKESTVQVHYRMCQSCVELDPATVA
T2 sequence (chain, as listed by the source limits assumed): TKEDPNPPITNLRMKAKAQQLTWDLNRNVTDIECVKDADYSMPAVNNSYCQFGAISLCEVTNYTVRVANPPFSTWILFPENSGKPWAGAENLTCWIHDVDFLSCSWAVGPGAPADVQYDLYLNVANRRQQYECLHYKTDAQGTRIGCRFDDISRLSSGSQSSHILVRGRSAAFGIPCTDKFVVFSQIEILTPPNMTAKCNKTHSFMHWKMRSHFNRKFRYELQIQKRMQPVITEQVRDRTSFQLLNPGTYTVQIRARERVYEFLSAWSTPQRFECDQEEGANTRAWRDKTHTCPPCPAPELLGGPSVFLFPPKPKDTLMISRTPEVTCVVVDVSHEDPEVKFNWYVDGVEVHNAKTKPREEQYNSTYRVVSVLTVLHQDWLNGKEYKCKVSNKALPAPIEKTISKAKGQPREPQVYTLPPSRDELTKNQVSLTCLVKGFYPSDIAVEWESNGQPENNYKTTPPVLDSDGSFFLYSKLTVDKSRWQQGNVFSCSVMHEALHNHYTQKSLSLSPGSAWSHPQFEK

B1: 11H3-E5 anti-CD3 antibody (antibody, V domains shown)
VH: EVQLVETGGSLVQPGKSLKLTCATSGFTFSNAWMHWVRQSPEKQLEWVAQIKAKSNNYATYYAESVKGRFTISRDDSKSSVYLQMNSLKEEDTAIYYCRGTYYAYKPFDYWGQGVMVTVSS
VL: DVVMTQTPVSLSVSLGGQVSISCRSSQSLVHDNGNTYLSWSLQKPGQSPQVLIYKVSNRFSGTSDRFTGSGSGTDFTLKISRVEPDDLGVYYCGQGTQYPFTFGSGTKLEIK
notes: rat mAb, hybridoma supernatant
As for B1, the “RU at 25 nM” value in assay [1] worked out at 7 RU.

B2: 3B10-E6 anti-CD123 antibody (antibody, V domains shown)
VH: QVQLQQSGPELRRPGSSVRLSCKASGYRIKDFLIHWIKNRPEHGLEWIGWIDPEDGETKYAQKFQTKATLTADTSSNTAYMQLSSLTSEDTATYFCARWGDVYYGLMRGHVMDAWGQGTSVTVSS
VL: DVLMTQTPVSLPVSLGGQVSISCRSSQSLVHSDGDTYLHWYLQKPGQSPQLLIYRVSNRFSGVPDRFSGSGSGTDFTLKISRVEPEDLGLYYCLQTTHFPPWTFGGGTKLEMK
notes: rat IgG, hybridoma supernatant; also called BFX - 3B10
A word on the koff: it is a measure of how fast the partners let go of each other. A higher koff goes with fast dissociation. Regarding B2, the off-rate constant (koff) in assay [2] was ~5e-05 s⁻¹.

(Values after patent publication US20180222987A1 (Sanofi, published 2018).)
